Source: patent publication US8840891 (RSR, dated 2014)

Assays:
[1] = biological target: human TSHR, wild type, expressed on CHO cells (human) (UniProt P16473); experiment: cell-based or functional assay
[2] = biological target: TSHR coated onto tubes (TSHR coated tubes) (human) (UniProt P16473); experiment: TSHR coated tubes, in presence of HBD pool
[3] = biological target: human TSHR with activating mutation S281I, on CHO cells (human) (UniProt P16473); experiment: cell-based or functional assay
[4] = biological target: human TSHR with activating mutation A623I, on CHO cells (human) (UniProt P16473); experiment: cell-based or functional assay

B1: 5C9 IgG (human monoclonal autoantibody to the TSHR) (antibody, from another filing, V domains shown)
VH: EVQLVESGGGLIQPGGSLRLSCAASGFTVSSNYMSWVRQAPGKGLEWVSVTYSGGSTSYADSVKGRFTISRDNSKNTLYLQMNSLRAEDTAVYYCARGGRYCSSISCYARSGCDYWGQGTLVTVSS
VL: AIQMTQSPSSLSASVGDRVTITCRASQSISNYLNWYQQKPGKAPKLLIYAASSLQSGVPSRFSGSGSGTDFTLTISSLQPEDFATYYCQQSYSSPSTTFGQGTKLEIK
Which results are given for B1?
cyclic AMP; Exp 1; 5C9 0.01 µg/mL + M22 3 ng/mL [1]: 48.1 pmol/mL; cyclic AMP; Exp 1; 5C9 0.1 µg/mL + M22 3 ng/mL [1]: 6 pmol/mL; cyclic AMP; Exp 1; 5C9 1 µg/mL + M22 3 ng/mL [1]: 0.93 pmol/mL; cyclic AMP; Exp 1; 5C9 10 µg/mL + M22 3 ng/mL [1]: 0.36 pmol/mL; cyclic AMP; Exp 1; 5C9 100 µg/mL + M22 3 ng/mL [1]: 0.35 pmol/mL; cyclic AMP; Exp 1; 5C9 100 µg/mL only [1]: 0.35 pmol/mL; cyclic AMP; Exp 2; 5C9 0.001 µg/mL + M22 3 ng/mL [1]: 63.3 pmol/mL; cyclic AMP; Exp 2; 5C9 0.01 µg/mL + M22 3 ng/mL [1]: 57.3 pmol/mL; cyclic AMP; Exp 2; 5C9 0.1 µg/mL + M22 3 ng/mL [1]: 4.17 pmol/mL; cyclic AMP; Exp 2; 5C9 10 µg/mL + M22 3 ng/mL [1]: 0.14 pmol/mL; cyclic AMP; Exp 2; 5C9 100 µg/mL only [1]: 0.69 pmol/mL; cyclic AMP; Exp 2; 5C9 + M22 3 ng/mL [1]: 2.54 pmol/mL; cyclic AMP; Exp 3; 5C9 0.001 µg/mL + M22 0.3 ng/mL [1]: 13.3 pmol/mL; cyclic AMP; Exp 3; 5C9 0.01 µg/mL + M22 0.3 ng/mL [1]: 13.1 pmol/mL; cyclic AMP; Exp 3; 5C9 0.1 µg/mL + M22 0.3 ng/mL [1]: 1.43 pmol/mL; cyclic AMP; Exp 3; 5C9 1 µg/mL + M22 0.3 ng/mL [1]: 0.02 pmol/mL; cyclic AMP; Exp 3; 5C9 10 µg/mL + M22 0.3 ng/mL [1]: 0.2 pmol/mL; cyclic AMP; Exp 3; 5C9 100 µg/mL + M22 0.3 ng/mL [1]: 0.05 pmol/mL; cyclic AMP; Exp 3; 5C9 100 µg/mL only [1]: 0.58 pmol/mL; cyclic AMP; Exp 4; 5C9 0.001 µg/mL + M22 0.3 ng/mL [1]: 33.1 pmol/mL; cyclic AMP; Exp 4; 5C9 0.01 µg/mL + M22 0.3 ng/mL [1]: 31.5 pmol/mL; cyclic AMP; Exp 4; 5C9 0.1 µg/mL + M22 0.3 ng/mL [1]: 6 pmol/mL; cyclic AMP; Exp 4; 5C9 1 µg/mL + M22 0.3 ng/mL [1]: 0.21 pmol/mL; cyclic AMP; Exp 4; 5C9 10 µg/mL + M22 0.3 ng/mL [1]: 0.4 pmol/mL; cyclic AMP; Exp 4; 5C9 100 µg/mL + M22 0.3 ng/mL [1]: 0.22 pmol/mL; cyclic AMP; Exp 4; 5C9 100 µg/mL only [1]: 0.12 pmol/mL; % binding of labelled tracer [2]: 20%; % inhibition of basal cyclic AMP activity; 5C9 IgG 1 µg/mL [3]: 71%; basal cyclic AMP (buffer only 36.89); 5C9 IgG 0.001 µg/mL [4]: 26.5 pmol/mL; basal cyclic AMP (buffer only 36.89); 5C9 IgG 0.01 µg/mL [4]: 27 pmol/mL; basal cyclic AMP (buffer only 36.89); 5C9 IgG 0.1 µg/mL [4]: 19.8 pmol/mL; basal cyclic AMP (buffer only 36.89); 5C9 IgG 1 µg/mL [4]: 16.4 pmol/mL
